Target: T1, β-1,3-glucanase (Hevea brasiliensis (endogenous in latex …, UniProt P52407 37-356))
T1 construct: β-1,3-glucanase of the lutoids (B-serum) of Hevea brasiliensis latex; two bands of about 35.5 and 41 kDa, both recognised by anti-glucanase and identified as β-1,3-glucanase by MALDI TOF MS; The preparation holds two forms (35.5 and 41 kDa); source: purified from B-serum of rubber tree latex (0-65% (NH4)2SO4, CM Sepharose Fast Flow); also unpurified in B-serum
Assay: SPR; Biacore 3000, 25 °C; β-1,3-glucanase amine-coupled to a CM5 chip (5000 RU); analytes flowed in HBS-EP pH 7.4 at 30 μL/min; multi-cycle kinetics, 1:1 Langmuir fit; apparent constants
Settings: both partners purified

T1 sequence (P52407 37-356): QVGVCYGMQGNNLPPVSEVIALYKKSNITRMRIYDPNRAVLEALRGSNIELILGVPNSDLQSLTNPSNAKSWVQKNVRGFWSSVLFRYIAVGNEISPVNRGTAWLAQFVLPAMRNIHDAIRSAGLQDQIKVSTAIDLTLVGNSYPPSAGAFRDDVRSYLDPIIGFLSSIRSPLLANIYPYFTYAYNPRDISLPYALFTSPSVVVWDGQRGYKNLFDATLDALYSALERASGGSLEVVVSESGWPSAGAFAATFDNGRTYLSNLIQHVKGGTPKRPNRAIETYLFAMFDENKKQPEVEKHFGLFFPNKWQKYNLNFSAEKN

| Binder | Kd |
| --- | --- |
| pro-hevein (natural protein, UniProt P02877 18-204, looked up, source: purified from B-serum of rubber tree latex (Sephacryl S-200HR); also unpurified in B-serum) EQCGRQAGGKLCPNNLCCSQWGWCGSTDEYCSPDHNCQSNCKDSGEGVGGGSASNVLATYHLYNSQDHGWDLNAASAYCSTWDANKPYSWRSKYGWTAFCGPVGAHGQSSCGKCLSVTNTGTGAKTTVRIVDQCSNGGLDLDVNVFRQLDTDGKGYERGHITVNYQFVDCGDSFNPLFSVMKSSVIN | 231 µM |
| EQCGRQAGGKLCPNNLCCSQWGWCGSTDEYCSPDHNCQSNCKD (natural protein, UniProt P02877 18-60, looked up, hevein, the N-terminal part split from pro-hevein, Hevea brasiliensis; runs at 10 kDa in Tricine-SDS-PAGE; source: purified from B-serum of rubber tree latex (85-95% (NH4)2SO4, Sephacryl S-200HR); also unpurified in B-serum) [hevein] | 87.9 µM |

From PMC6322289, “The formation and accumulation of protein-networks by physical interactions in the rapid occlusion of laticifer cells in rubber tree undergoing successive mechanical wounding” (BMC Plant Biology, 2019)
